# B1: Tumor necrosis factor ligand superfamily member 15 (Homo sapiens), O95150-1 (parent)
# chain: MAEDLGLSFGETASVEMLPEHGSCRPKARSSSARWALTCCLVLLPFLAGLTTYLLVSQLRAQGEACVQFQALKGQEFAPSHQQVYAPLRADGDKPRAHLTVVRQTPTQHFKNQFPALHWEHELGLAFTKNRMNYTNKFLLIPESGDYFIYSQVTFRGMTSECSEIRQAGRPNKPDSITVVITKVTDSYPEPTQLLMGTKSVCEVGSNWFQPIYLGAMFSLQEGDKLMVNVSDISLVDYTKEDKTFFGAFLL
# partner: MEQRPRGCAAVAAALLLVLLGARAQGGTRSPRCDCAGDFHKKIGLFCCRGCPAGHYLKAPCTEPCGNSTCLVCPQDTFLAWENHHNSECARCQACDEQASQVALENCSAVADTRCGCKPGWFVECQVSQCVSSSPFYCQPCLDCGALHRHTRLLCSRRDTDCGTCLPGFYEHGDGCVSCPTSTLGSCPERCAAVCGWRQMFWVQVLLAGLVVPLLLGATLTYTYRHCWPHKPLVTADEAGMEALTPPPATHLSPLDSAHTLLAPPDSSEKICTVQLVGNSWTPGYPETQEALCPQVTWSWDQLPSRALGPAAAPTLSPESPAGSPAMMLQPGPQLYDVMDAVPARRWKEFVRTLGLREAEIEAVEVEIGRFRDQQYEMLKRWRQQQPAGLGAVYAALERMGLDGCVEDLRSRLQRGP
# B2: Tumor necrosis factor receptor superfamily member 6B (Homo sapiens), O95407 (parent)
# chain: MRALEGPGLSLLCLVLALPALLPVPAVRGVAETPTYPWRDAETGERLVCAQCPPGTFVQRPCRRDSPTTCGPCPPRHYTQFWNYLERCRYCNVLCGEREEEARACHATHNRACRCRTGFFAHAGFCLEHASCPPGAGVIAPGTPSQNTQCQPCPPGTFSASSSSSEQCQPHRNCTALGLALNVPGSSSHDTLCTSCTGFPLSTRVPGAEECERAVIDFVAFQDISIKRLQRLLQALEAPEGWGPTPRAGRAALQLKLRRRLTELLGAQDGALLVRLLQALRVARMPGLERSVRERFLPVH
# partner: B1 chain
# B3: Tumor necrosis factor receptor superfamily member 6B (Homo sapiens), O95407 (parent)
# chain: B2 chain
# Variants of: B1
# Details: with TNFRSF25, Q93038-1
row,Variant,effect of a mutation on the interaction
1,C162S;S187A;E190A;C202S,disrupting interaction

# Variants of: B2
# Details: with TNFSF15, O95150-1
row,Variant,effect of a mutation on the interaction
1,L85A;R89A,decreasing interaction

# Variants of: B3
# Details: with TNFSF14, O43557-1
# TNFSF14, O43557-1, sequence (O43557 whole entry): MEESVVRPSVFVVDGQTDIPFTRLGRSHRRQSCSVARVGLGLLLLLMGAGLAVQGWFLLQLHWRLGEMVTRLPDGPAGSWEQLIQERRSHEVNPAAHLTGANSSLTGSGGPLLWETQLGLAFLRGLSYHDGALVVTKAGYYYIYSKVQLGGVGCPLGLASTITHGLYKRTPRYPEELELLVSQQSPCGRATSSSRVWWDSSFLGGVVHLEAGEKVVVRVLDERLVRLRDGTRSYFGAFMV
row,Variant,effect of a mutation on the interaction
1,L85A;R89A,decreasing interaction

# Variants of: B3
# Details: with tnfl6_human FASLG
row,Variant,effect of a mutation on the interaction
1,L85A;R89A,disrupting interaction
